# Experimental data as given in US20120316071A1 (published 2012).
# Where two headings read alike, the source gives them in different places.
# Columns and labels:
# [1] = molecular target: T1, Recombinant Human DLL4 (human, UniProt Q9NR61 27-524); test: ELISA, DLL4 coated, 100 nM Fab
# T1 construct: Bought recombinant protein (R&D Systems Cat#1506-D4/CF), coated on the plate; also called delta-like protein 4; Delta-like 4
# [2] = molecular target: T1, Recombinant Human DLL4; test: ECL 96-well plate binding assay, DLL4 immobilised, 10 nM Fab
# [3] = molecular target: T2, Recombinant Human DLL4 (human, UniProt Q9NR61 27-524); test: ECL (MSD) 96-well plate assay; plate coated with 30 ug/mL DLL4; 0.02 uM Fab
# T2 construct: Bought recombinant protein (R&D Systems Cat#1506-D4/CF); also called delta-like protein 4; Delta-like 4
# [4] = molecular target: T2, Recombinant Human DLL4; test: ECL (MSD) 96-well plate assay; plate coated with 15 ug/mL DLL4; 0.004 uM Fab
# [5] = molecular target: T3, Recombinant Human DLL4 (delta-like protein 4) (human, UniProt Q9NR61 27-529); test: ECL (MSD) multispot assay; Fab 0.1 µM
# T3 construct: Bought recombinant protein (R&D Systems Cat#1506-D4/CF); also called rHuman DLL4; Delta-like 4
# [6] = molecular target: T3, Recombinant Human DLL4 (delta-like …); test: ECL (MSD) multispot assay; Fab 0.01 µM
# [7] = molecular target: T4, Recombinant Human DLL4 (delta-like protein 4) (human, UniProt Q9NR61 27-529); test: 96-well plate ECL (MSD) binding assay on coated DLL4, 10 nM Fab
# T4 construct: Bought recombinant human DLL4 (R&D Systems Cat#1506-D4/CF), coated on the plate; also called rHuman DLL4; Delta-like 4
# [8] = molecular target: T4, Recombinant Human DLL4 (delta-like …); test: ELISA on coated DLL4, 100 nM Fab
# [9] = molecular target: T4, Recombinant Human DLL4 (delta-like …); test: ELISA on coated DLL4, 100 nM Fab; remark: listed apart in the source
binder,measurement,setting,value
"Fab VH1-46_IGHD6-6*01_IGHJ1*01 S102A/S103P/S104F/H111F/I51T/N52L/P53H/S54T/G56H & L6_IGKJ1*01 (Fab, V domains shown, Tested as Fab expressed in E. coli (CH1 with His6/Flag tags from plasmid A; kappa CL from plasmid C); also called APFF TLHTH) VH: QVQLVQSGAEVKKPGASVKVSCKASGYTFTSYYMHWVRQAPGQGLEWMGITLHTGHSTSYAQKFQGRVTMTRDTSTSTVYMELSSLRSEDTAVYYCAREEYAPFSAEYFQFWGQGTLVTVSS VL: not shown",ELISA signal,[1],0.287
same,ECL signal,[2],108000
"Fab VH1-46_IGHD6-6*01_IGHJ1*01 S105A & L6_IGKJ1*01 (Fab, V domains shown, Heavy chain CDR3 alanine mutant of the parent Fab; Fab format with CH1, kappa CL, His6 and Flag tags from the expression plasmids) VH: QVQLVQSGAEVKKPGASVKVSCKASGYTFTSYYMHWVRQAPGQGLEWMGIINPSGGSTSYAQKFQGRVTMTRDTSTSTVYMELSSLRSEDTAVYYCAREEYSSSAAEYFQHWGQGTLVTVSS VL: not shown",ECL signal,[3],1100
same,Signal/Noise,[3],2.9
same,ECL signal,[4],181
same,Signal/Noise,[4],1.2
"Fab VH1-46_IGHD6-6*01_IGHJ1*01 S102A/S103P/S104F/H111F/I51T/N52L/P53G/S54T/G56H & L6_IGKJ1*01 (Fab, V domains shown, Tested as Fab expressed in E. coli (CH1 with His6/Flag tags from plasmid A; kappa CL from plasmid C); also called APFF TLGTH) VH: QVQLVQSGAEVKKPGASVKVSCKASGYTFTSYYMHWVRQAPGQGLEWMGITLGTGHSTSYAQKFQGRVTMTRDTSTSTVYMELSSLRSEDTAVYYCAREEYAPFSAEYFQFWGQGTLVTVSS VL: not shown",ELISA signal,[1],0.018
same,ECL signal,[2],103000
"Fab VH1-46_IGHD6-6*01_IGHJ1*01 S103A & L6_IGKJ1*01 (Fab, V domains shown, Fab; The VH was cloned into Plasmid A (CH1, His6 and Flag tags) and the kappa VL into Plasmid C (kappa CL); expressed in E. coli) VH: QVQLVQSGAEVKKPGASVKVSCKASGYTFTSYYMHWVRQAPGQGLEWMGIINPSGGSTSYAQKFQGRVTMTRDTSTSTVYMELSSLRSEDTAVYYCAREEYSASSAEYFQHWGQGTLVTVSS VL: not shown",ECL signal,[5],7110
same,Signal/Noise,[5],31.6
same,ECL signal,[6],1190
same,Signal/Noise,[6],4.5
"Fab VH1-46_IGHD6-6*01_IGHJ1*01 S102A/S103P/S104F/H111F/I51E/N52L/S54T/G56H (APFF ELTH) & L6_IGKJ1*01 (Fab, V domains shown, Fab made in E. coli; CH1 with tags and kappa CL are not included) VH: QVQLVQSGAEVKKPGASVKVSCKASGYTFTSYYMHWVRQAPGQGLEWMGIELPTGHSTSYAQKFQGRVTMTRDTSTSTVYMELSSLRSEDTAVYYCAREEYAPFSAEYFQFWGQGTLVTVSS VL: not shown",ECL signal,[7],167000
same,ELISA signal,[8],0.995
"Fab VH1-46_IGHD6-6*01_IGHJ1*01 S102A/S103P/S104F/H111F/I51G/N52L/S54T/G56H (APFF GLTH) & L6_IGKJ1*01 (Fab, V domains shown, Fab made in E. coli; CH1 with tags and kappa CL are not included) VH: QVQLVQSGAEVKKPGASVKVSCKASGYTFTSYYMHWVRQAPGQGLEWMGIGLPTGHSTSYAQKFQGRVTMTRDTSTSTVYMELSSLRSEDTAVYYCAREEYAPFSAEYFQFWGQGTLVTVSS VL: not shown",ECL signal,[7],131000
same,ELISA signal,[8],0.407
"Fab VH1-46_IGHD6-6*01_IGHJ1*01 S102A/S103P/S104F/H111F S54A & L6_IGKJ1*01 (Fab, V domains shown, Fab made in E. coli; CH1 with tags and kappa CL are not included; also called APFF S54A; H:APFF S54A) VH: QVQLVQSGAEVKKPGASVKVSCKASGYTFTSYYMHWVRQAPGQGLEWMGIINPAGGSTSYAQKFQGRVTMTRDTSTSTVYMELSSLRSEDTAVYYCAREEYAPFSAEYFQFWGQGTLVTVSS VL: not shown",ELISA signal,[9],0.02
"Fab VH1-46_IGHD6-6*01_IGHJ1*01 S102A/S103P/S104F/H111F/I51N/N52L/S54T/G56H (APFF NLTH) & L6_IGKJ1*01 (Fab, V domains shown, Fab made in E. coli; CH1 with tags and kappa CL are not included) VH: QVQLVQSGAEVKKPGASVKVSCKASGYTFTSYYMHWVRQAPGQGLEWMGINLPTGHSTSYAQKFQGRVTMTRDTSTSTVYMELSSLRSEDTAVYYCAREEYAPFSAEYFQFWGQGTLVTVSS VL: not shown",ECL signal,[7],126000
same,ELISA signal,[8],1.09
"Fab VH1-46_IGHD6-6*01_IGHJ1*01 S102A/S103P/S104F/H111F/I51T/N52L/P53S/S54T/G56H & L6_IGKJ1*01 (Fab, V domains shown, Tested as Fab expressed in E. coli (CH1 with His6/Flag tags from plasmid A; kappa CL from plasmid C); also called APFF TLSTH) VH: QVQLVQSGAEVKKPGASVKVSCKASGYTFTSYYMHWVRQAPGQGLEWMGITLSTGHSTSYAQKFQGRVTMTRDTSTSTVYMELSSLRSEDTAVYYCAREEYAPFSAEYFQFWGQGTLVTVSS VL: not shown",ELISA signal,[1],0.076
same,ECL signal,[2],135000
"Fab VH1-46_IGHD6-6*01_IGHJ1*01 S102A & L6_IGKJ1*01 (Fab, V domains shown, Fab; The VH was cloned into Plasmid A (CH1, His6 and Flag tags) and the kappa VL into Plasmid C (kappa CL); expressed in E. coli) VH: QVQLVQSGAEVKKPGASVKVSCKASGYTFTSYYMHWVRQAPGQGLEWMGIINPSGGSTSYAQKFQGRVTMTRDTSTSTVYMELSSLRSEDTAVYYCAREEYASSSAEYFQHWGQGTLVTVSS VL: not shown",ECL signal,[5],15800
same,Signal/Noise,[5],71.6
same,ECL signal,[6],2600
same,Signal/Noise,[6],10
"Fab VH1-46_IGHD6-6*01_IGHJ1*01 S103P & L6_IGKJ1*01 (Fab, V domains shown, Fab; The VH was cloned into Plasmid A (CH1, His6 and Flag tags) and the kappa VL into Plasmid C (kappa CL); expressed in E. coli) VH: QVQLVQSGAEVKKPGASVKVSCKASGYTFTSYYMHWVRQAPGQGLEWMGIINPSGGSTSYAQKFQGRVTMTRDTSTSTVYMELSSLRSEDTAVYYCAREEYSPSSAEYFQHWGQGTLVTVSS VL: not shown",ECL signal,[5],19300
same,Signal/Noise,[5],139
same,ECL signal,[6],4100
same,Signal/Noise,[6],22.9
"Fab VH1-46_IGHD6-6*01_IGHJ1*01 S102A/S103P/S104F/H111F/I51T/N52L/P53V/S54T/G56H & L6_IGKJ1*01 (Fab, V domains shown, Tested as Fab expressed in E. coli (CH1 with His6/Flag tags from plasmid A; kappa CL from plasmid C); also called APFF TLVTH) VH: QVQLVQSGAEVKKPGASVKVSCKASGYTFTSYYMHWVRQAPGQGLEWMGITLVTGHSTSYAQKFQGRVTMTRDTSTSTVYMELSSLRSEDTAVYYCAREEYAPFSAEYFQFWGQGTLVTVSS VL: not shown",ELISA signal,[1],0.035
same,ECL signal,[2],91500
"Fab VH1-46_IGHD6-6*01_IGHJ1*01 S102A/S103P/S104F/H111F/I51T/N52L/P53A/S54T/G56H & L6_IGKJ1*01 (Fab, V domains shown, Tested as Fab expressed in E. coli (CH1 with His6/Flag tags from plasmid A; kappa CL from plasmid C); also called APFF TLATH) VH: QVQLVQSGAEVKKPGASVKVSCKASGYTFTSYYMHWVRQAPGQGLEWMGITLATGHSTSYAQKFQGRVTMTRDTSTSTVYMELSSLRSEDTAVYYCAREEYAPFSAEYFQFWGQGTLVTVSS VL: not shown",ELISA signal,[1],0.33
same,ECL signal,[2],163000
